Reference: US20190300623A1 (POLYTHERICS, published 2019)
Substitutions are numbered along the chain they refer to. Read-outs that look alike come from different tables or passages of the source.

B1: AB-09-mc-val-cit-PAB-MMAE (antibody, IgG1, V domains shown)
VH: QVQLVESGGGVVQPGRSLRLSCAASGFTFSNYVMHWVRQAPGKGLEWVAIIWYDGSNKYYADSVKGRFTISRDNSKNTLYLQMNSLRAEDTAVYYCAGGYNWNYEYHYYGMDVWGQGTTVTVSS
VL: DIQMTQSPSSLSASVGDRVTITCRASQGITNYLAWFQQKPGKAPKSLIYAASSLQSGVPSKFSGSGSGTDFSLTISSLQPEDFATYYCQQYNSYPITFGQGTRLEIK
modifications: mc-val-cit-PAB-MMAE (maleimide reagent) conjugated after TCEP reduction; average DAR 3.5 (±0.2); attachment residues not given
B2: AB-02-mc-val-cit-PAB-MMAE (antibody, human IgG1, V domains shown)
VH: EVQLVQSGAEVKKPGASVKVSCKASGYTFTEYTIHWVRQAPGKGLEWIGNINPNNGGTTYNQKFEDRVTITVDKSTSTAYMELSSLRSEDTAVYYCAAYWLFDYWGQGTTVTVSS
VL: DIQMTQSPSTLSASVGDRVTITCKASQDVGTAVDWYQQKPGQAPKLLIYWASTRHTGVPDRFSGSGSGTDFTLTISRLQPEDFAVYYCQQYNSYPLTFGQGTKVDIK
modifications: mc-val-cit-PAB-MMAE (maleimide reagent) conjugated after TCEP reduction; average DAR 3.5 (±0.2); attachment residues not given
B3: AB-03-mc-val-cit-PAB-MMAE (antibody, human IgG1, V domains shown)
VH: B2 VH with A98G, Y99G, L101T
VL: B2 VL with Y91F, N92T, S93R
modifications: mc-val-cit-PAB-MMAE (maleimide reagent) conjugated after TCEP reduction; average DAR 3.5 (±0.2); attachment residues not given
B4: AB-05-mc-val-cit-PAB-MMAE (antibody, human IgG1, V domains shown)
VH: B2 VH
VL: B2 VL with S93A, P95S
modifications: mc-val-cit-PAB-MMAE (maleimide reagent) conjugated after TCEP reduction; average DAR 3.5 (±0.2); attachment residues not given
B5: AB-04-mc-val-cit-PAB-MMAE (antibody, human IgG1, V domains shown)
VH: B2 VH with A98G, Y99A, L101T, F102M
VL: B2 VL with Y91F, N92T, S93R
modifications: mc-val-cit-PAB-MMAE (maleimide reagent) conjugated after TCEP reduction; average DAR 3.5 (±0.2); attachment residues not given
B6: AB-03 (antibody, human IgG1, V domains shown)
VH: B2 VH with A98G, Y99G, L101T
VL: B2 VL with Y91F, N92T, S93R
notes: Variable domains only; Expressed as human IgG1 (G1m3) / kappa (Km3)
B7: AB-05 (antibody, human IgG1, V domains shown)
VH: B2 VH
VL: B2 VL with S93A, P95S
notes: as for B6
B8: AB-02 (antibody, human IgG1, V domains shown)
VH: B2 VH
VL: B2 VL
notes: as for B6
B9: AB-04 (antibody, human IgG1, V domains shown)
VH: B2 VH with A98G, Y99A, L101T, F102M
VL: B2 VL with Y91F, N92T, S93R
notes: as for B6
B10: AB-08-mc-val-cit-PAB-MMAE (antibody, V domains shown)
VH: QVQLVESGGGVVQPGRSLRLSCAASGFAFSRYGMHWVRQAPGKGLEWVAVIWYDGSNKYYADSVKGRFTISRDNSKNTQYLQMNSLRAEDTAVYYCARGGDFLYYYYYGMDVWGQGTTVTVSS
VL: DIQMTQSPSSLSASVGDRVTITCRASQGISNYLAWYQQKTGKVPKFLIYEASTLQSGVPSRFSGGGSGTDFTLTISSLQPEDVATYYCQNYNSAPFTFGPGTKVDIK
modifications: mc-val-cit-PAB-MMAE (maleimide reagent) conjugated after TCEP reduction; average DAR 3.5 (±0.2); attachment residues not given

Key:
[1] = target: PSMA on PSMA-positive LNCaP (clone FGC) and C4-2 cells; assay: cell-based or functional assay
[2] = target: T1, recombinant human PSMA (R&D Systems) (human, UniProt Q04609 44-750); assay: SPR (Biacore T200), antibody captured on Protein A chip, recombinant human PSMA as analyte, 25 C
T1 construct: Bought protein used as the Biacore analyte; also called PSMA antigen; PSMA analyte

[3] = target: T1, recombinant human PSMA (R&D Systems); assay: as above; remark: listed apart in the source
[4] = target: T1, recombinant human PSMA (R&D Systems); assay: SPR (Biacore T200), relative to AB-01 on the same chip
[5] = target: T1, recombinant human PSMA (R&D Systems); assay: SPR (Biacore T200), antibody captured on Protein A chip, recombinant human PSMA as analyte, 25 C; remark: listed apart in the source

T1 sequence (Q04609 44-750 limits assumed): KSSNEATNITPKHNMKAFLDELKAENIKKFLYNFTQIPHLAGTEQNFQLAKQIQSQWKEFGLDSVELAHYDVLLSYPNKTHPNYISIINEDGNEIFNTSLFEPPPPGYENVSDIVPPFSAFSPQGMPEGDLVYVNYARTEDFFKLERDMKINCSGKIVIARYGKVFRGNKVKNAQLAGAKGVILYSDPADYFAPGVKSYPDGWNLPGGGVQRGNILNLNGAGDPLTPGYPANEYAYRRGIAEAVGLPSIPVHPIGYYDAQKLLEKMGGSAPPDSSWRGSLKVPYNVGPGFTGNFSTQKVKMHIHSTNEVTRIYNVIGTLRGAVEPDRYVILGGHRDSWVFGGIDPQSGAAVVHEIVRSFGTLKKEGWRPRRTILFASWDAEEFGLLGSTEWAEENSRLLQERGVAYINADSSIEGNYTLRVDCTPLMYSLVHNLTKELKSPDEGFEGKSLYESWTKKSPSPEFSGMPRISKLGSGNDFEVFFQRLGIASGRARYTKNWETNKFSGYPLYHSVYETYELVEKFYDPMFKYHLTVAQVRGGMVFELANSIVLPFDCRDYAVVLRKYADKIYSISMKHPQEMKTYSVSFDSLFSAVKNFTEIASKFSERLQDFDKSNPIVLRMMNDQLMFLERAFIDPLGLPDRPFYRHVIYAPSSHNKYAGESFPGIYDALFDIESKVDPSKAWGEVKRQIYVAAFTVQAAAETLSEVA

Row | Binder | IC50 (nM), anti-proliferative effect on C4-2 cells (CellTiter Glo viability) [1] [nM] | IC50 (nM), anti-proliferative effect on LNCaP cells (CellTiter Glo viability) [1] [nM] | other results
1 | B1 | 0.24 | 0.89 | 
2 | B2 | 0.18 | 0.61 | 
3 | B3 | 0.22 | 0.7 | 
4 | B4 | 0.41 | 1.27 | 
5 | B5 | 0.21 | 0.67 | 
6 | B6 |  |  | Kd [2]: 0.245 nM
7 | B7 |  |  | Kd [3]: 0.224 nM
8 | B8 |  |  | Relative KD [4]: 1.98; Kd [5]: 0.28 nM
9 | B9 |  |  | Relative KD [4]: 1.56; Kd [5]: 0.354 nM
10 | B10 | 0.31 | 1.03 | 
